The record followed here is the DeepSol protein solubility set.

The nature of the data set: soluble on expression in E. coli; label from the status in PepcDB or PDB records.
Turning to “MKLQKQLLEAVEHKQLRPLDVQFALTVAGDEHPAVTLAAALLSHDAGEGHVCLPLSRLENNEASNPLLATCVSEIGELQNWEECLLASQAVSRGDEPTPMILCGDRLYLNRMWCNERTVARFFNEVNHTIEVDEALLAQTLDKLFPVSDEINWQKVAAAVALTRRISVISGGPGTGKTTTVAKLLAALIQMADGERCRIRLAAPTGKAAARLTESLGKALRQLPLTDEQKKRIPEDASTLHRLLGAQPGSQRLRHHAGNPLHLDVLVVDEASMIDLPMMSRLIDALPDHARVIFLGDRDQLASVEAGAVLGDICAYANAGFTAERARQLSRLTGTHVPAGTGTEAASLRDSLCLLQKSYRFGSDSGIGQLAAAINRGDKTAVKTVFQQDFTDIEKRLLQSGEDYIAMLEEALAGYGRYLDLLQARAEPDLIIQAFNEYQLLCALREGPFGVAGLNERIEQFMQQKRKIHRHPHSRWYEGRPVMIARNDSALGLFNGDIGIALDRGQGTRVWFAMPDGNIKSVQPSRLPEHETTWAMTVHKSQGSEFDHAALILPSQRTPVVTRELVYTAVTRARRRLSLYADERILSAAIATRTERRSGLAALFSSRE”, the “soluble on expression in E. coli” value is “not soluble”.

For the sequence “MKLRHLPLIAAIGLFSTVTLAAGYTGPGATPTTTTVKAALEAADDTPVVLQGTIVKRIKGDIYEFRDATGSMKVEIDDEDFPPMEINDKTRVKLTGEVDRDLVGREIDVEFVEVIK”, the “soluble on expression in E. coli” value was “not soluble”.

As for “MKLSHDCIRDILLFSESLPYNEPAFGDKIFKSDLLKKYSSEEINYAVSKLGDDDAQLIKGYVKFASNKPYMTCISSLTFDGHKYLDNIRDPKIWKESKKISSKLASVSIDIMSEIAAKVITKTLGLD”, the “soluble on expression in E. coli” value is “not soluble”.

On to “MKLSVVMPVYNEKATLRAIYEQVAAVTIDKEIILVDDCSTDGTREIVRELGATGATVVLHDRNMGKGAALRSGFRHVTGDVVLIQDADLEYDPGQYPLLIQPILNGEVDVVYGSRFLSGERSLGMSFWNRAGNRILTYLSNTLTKLELTDVETCYKVFSRDVLERITIEENRFGCEPEITAKLAKLGVRIREVGISYRGRTSAEGKKIGWRDFISSVRCIAKYTLT”, for which the “soluble on expression in E. coli” value is “soluble”.

Regarding “MKLVIDAGHGGYDSGAVGNGLVEKNLTLQIARRVRDILTVNYPITIKMTRDSDVFISLSERANIANAFSADYFISFHINSGGGTGFESYIYNALSNSSTAYAKQQKMHTAVNPVLTKYGLRDRGAKKENYAVLRETAMDAILTETAFIDTAFDANLLKNPQFIEDLSQAYANGIAAIFGVAPNPQPPNPQPVPQTKGIAYVLGKNVNLRNGPSTSSSVIRQLNSPESYVVYQESNGWLDLGNGQWVYNDSSYINFVKTSNSDGSPIGVAYIQGMNVNLRSGPSTTSAVIRQLNSPESYLVYINENGWLNLGGNQWVYNDPAYIKYTQY”, the “soluble on expression in E. coli” value was “not soluble”.

With “MKLYFIINPAAKNGRSVSIWKQLQPLLDREGIAYQAYWTSRKGEGKEIARRIGEESVEPTVIAAVGGDGTVHEVVNGAGSFPHVAIGCIPAGTGNDFVRGFRLARKPKQALQRLLSDVRSGKDLAFDLGRFASSAVPDGVFANSIGCGFDAHIARMANRSKWKGRLNRFGLGSFIYVFYLVRELFRYQPVDLDICVDGQNYSFLKAWLATASNHPYYGGGMRIAPSVRADDGLLHVTVVGPMPRWKILALFLTVFWGGHVRMKEVCVFTGRNVRIRPAAPVLIHADGEDAGEGEVFAWIEPGRLRVIGVKTR”, the “soluble on expression in E. coli” value is listed as “not soluble”.

For “MKMNEIVASTQFPNTIETITKDLKALGVEKGMTIIVHSSLSSIGWISGGAVAVVEALMKVVTEEGTIIMPTQSSDLSDPKHWSRPPVPEDWWQIIRDNVPAFDSRITPTRGMGEIVECFRTYPNVVRSNHPLGSFAAWGKHAVEITMNHSLSMSFGEESPLRKIYDLDGYVLLIGVGYDSNTSVHLSEVRSGACELIQVGAPIIENGERVWKEFVEMDYESEKFVEIGVEFERKGTVKNGKIGNATCRLMKQRDIVDFGTEWFRKKN”, the “soluble on expression in E. coli” value is listed as “not soluble”.

With “MKMPEHTDTPKEKILVYIRAEKQKTLHRRQVCINDIASVYCKYSRYEGQIKGIIVDKIRGKKSVISVMKIIEQITEIYDDAQVISIGEPEVLVEYDDNSKNKILEA”, the “soluble on expression in E. coli” value is “soluble”.

With “MKNAETPVFKLVLFGPESSLGNALMVELLSRQHEVIAVVDDLNRHSPRPGLHFKIGGLGDAHQAEQGAAGGSAVIALLPALAPGDLPGQARLSEALVAGLARTTIRRLLLVGDFDVLDEPGKYSEVERECVAQVVDGLQRSALHWTLINAPQELAGLGMEHFRSTEGTLEPGLAEPLRRLSRIAAGMVDMLELDLHRSEHLNFVV”, the “soluble on expression in E. coli” value is on record as “not soluble”.

For the sequence “MKNKLLFMMLTILGAPGIAAAAGYDLANSEYNFAVNELSKSSFNQAAIIGQAGTNNSAQLRQGGSKLLAVVAQEGSSNRAKIDQTGDYNLAYIDQAGSANDASISQGAYGNTAMIIQKGSGNKANITQYGTQKTAIVVQRQSQMAIRVTQR”, the “soluble on expression in E. coli” value is “not soluble”.

Turning to “MKNLAIFDLDNTLINTDSDHAWPQYLIKKGLVDAAETEAQNEKFYRDYQNGCLDIDAFLKLHLAPLARYSKEELAEFHREFMAEYIIPHISPMQRMLVQSHQMAGDETLVISSTNEFIITPVCRLFGIANMIGTQLETGPDGRYTGNYIGTPSLKEGKITRLNQWLAERGETLESYGKTYFYSDSKNDLPLLRLVSEPVAVNPDAELEKEAKEKGWPVLNFK”, the “soluble on expression in E. coli” value was “not soluble”.

On to “MKNLEKCILCGSHNIVPHWKNVRSYNVSKCLDCSFLFLHEIIDDHELENYYSQSYFMASYAKTENNLIDAANNPKITAEAKEYANLIKLHHPEAHNVGEIGCSWGYLLYNLQNFGYSAKGFELSKTTAEMGSKQLGINITSGFFETQYNQFDVLILRHVLEHVPDPQDLLEKIYDSIKKDGLFILEGPNLDSISSRLFGKNVSWVSPPDHISFPNFISLIMACEKLGFTCIHKSSRRGRGISIFHQALLNSVGLMFGGKEKAKVNLGGINEKPNNQQLSSLKSAALKIVDFLDFLSSPMQPFLKQALLEEEMLIIFKKLEHHHHHH”, for which the “soluble on expression in E. coli” value is given as “not soluble”.

Consider “MKNLVGRFMRYVTFDTQSKPKNHHCPSSTGQKVFAQALYEELLELGLSDVSLDDHGYVMAKLPSNVNYPVPAIGFIAHMDTSPDACGKHVKPQIVEDYQGGDIALGKGDEVLSPIQYPDLHLLHGYNLITTDGTTLLGADNKAGIAEIITAMEILLADPSIPHGDISIAFTPDEEIGRGANHFDVAKFAAQWAYTIDGGPIGELEYENFNAATATVVCHGVNVHPGTAKDKMVNAMHIAAQFILMMPENETPQHTEGYQGFYHLSGATMSVAKSELKYILRDFEAIGLQARQALMQAKVAELNQQLKKGRVEVSFEQSYSNMKEKVEPHPHIIELAKQAMVACDVEPKIKPIRGGTDGARLSFMGLPCPNIFTGGYNFHGIHEFITIEGMEAAVQVIVKLAEKTALHYRQ”, for which the “soluble on expression in E. coli” value is “not soluble”.

“MKNQLGQLALEQAKTFGGKLEVQPKVDIKTKHDLSIAYTPGVASVSSAIAKDKTLAYDLTTKKNTVAVISDGTAVLGLGDIGPEAAMPVMEGKAALFKAFAGVDAIPIVLDTKDTEEIISIVKALAPTFGGINLEDISAPRCFEIEQRLIKECHIPVFHDDQHGTAIVVLAAIFNSLKLLKKSLDEVSIVVNGGGSAGLSITRKLLAAGATKVTVVDKFGIINEQEAAQLAPHHLDIAKVTNREFKSGTLEDALEGADIFIGVSAPGVLKAEWISKMAARPVIFAMANPIPEIYPDEALEAGAYIVGTGRSDFPNQINNVLAFPGIFRGALDARAKTITVEMQIAAAKGIASLVPDDALSTTNIIPDAFKEGVAEIVAKSVRSVVLKS”: the “soluble on expression in E. coli” value is listed as “not soluble”.

As to “MKNTTLYTYRDYFVIRGGKPLTGKVKISGAKNAALPIMFATILTEEPCTITNVPDLLDVRNTLLLLRELGAELEFLNNTVFINPSINSFITNQEIIRRMRASVLSLGPLLGRFGRAVVGLPGGCSIGARPIDQHLKFFKEAGADVEVREGYVYVNLKEKRRVHFKFDLVTVTGTENALLYLASVPEESILENIALEPEVMDLIEVLKKMGAHVKVEGRSAYVKGSENLKGFTHSVIPDRIEAGTFMVGAVLTDGEILLENARINHLRAVVEKLKLIGGEVVEENGNLRVFRKESLRACDIETQVYPGFPTDMQAQFMALLSVAKGKSRIKENIFEHRFHHAQELNRLGANITVRGNTAYVEGVERLYGSEVYSTDLRASASLVLAGLVAQGETVVRDVYHLDRGYEKLEEKLKKLGADIERVSEL”, the “soluble on expression in E. coli” value was “soluble”.

With “MKPILALLSLLALPVMAAEPTLYGRYENIKVLEIGQTFKAKMDTGALTASLSAKDIELFQRDGDDWVRFRLATKGADDKVYEHKVSRISKIKGRAEGDDEDDEGINPAKRPVVDLELCLGNKKRTVEVNLVDRSHFNFPLLIGAKALREFGAAINPARRYTADEPDC”, the “soluble on expression in E. coli” value is given as “not soluble”.

As for “MKPKLAQWKELLAARHKKENDEEKEEEKPDGRPVTDVPYADVWREYGAKPYWFAGDYCLIRETVYPLDYQHGRYRLGALYEVHERWQEAPFSHPLSCRGFAVRDLFFFDTETMGLSSGAGNIMFLLGHARILGDFVTIRQHLLPYPGAEVALYQSFLSDVDYTTLVTYNGKAFDWPRLKTRHALVRNMVPKLPAFGHFDLYHAARRLWKDKLDSLRLSEVERHILHVERGDDVPGFLAPMMYKEFLQTPHPDRLMPVLRHNERDVLSLIALYIHLSVQLLEADRLADPKEQLAAARWFEAVGETAAARGVYEEASGKGAKEAQAAKWQLSLLYRKEKRYEEAALLWRDLLIHGNGYWKAKAGLELAKVYEHYFRDAAEAHRYAVMAYEAWRSLARMSRQHSEKEEAEWRRRLARLERKKNG”, the “soluble on expression in E. coli” value is recorded as “not soluble”.

In the case of “MKPKTRLYYAERLEPVLAWLAARPDADADLHRLAELACLSPYYFHRVYRALLGETVHATVQRMRLARASVALAQGKGSLRQVADRAGYASEAAFSRAFSAQYGLPPGRYRAKRSSPFNPEELRMYPLTMEDFPGLSLAILAHQGDYQEIGNTFDRLALLAAIQDLVRDGMQPPPRYIGVYYDDPAQVARDALRSRAGVSLPPGTAAPAPFEPLDIPAMRCAVLEYTGPYSEIEAPYNWLFSQWLPASGQEPGDFPMFEEYLNDPKTTPAAQLKTRIYLPLA”, the “soluble on expression in E. coli” value was “not soluble”.

As for “MKPMTQEPSTLYAKLLGETASITWTELQPFFAKGALLWVELPLDLIEVAEAVAENDAARVSAWLADGQVGKVSETKALELVETDPQLWAVVVAPWVLIQNRANV”, the “soluble on expression in E. coli” value is on record as “not soluble”.

In the case of “MKPRPQSDAVDNEGPTPLSKGRRHLAMRLDDAWLGFQTRLAIRRGRVETVIPYTGYGSTSWVRVLARIVRSDPRDAAGHTNPLQESMRGWRNFTSAPVAHASVQVTIDGTVHDVVADRGGVVDARIPVALDAGWHTITLRSGESETVEAPVEIVADDAVFGVVSDIDDTVMVTALPRPFLAAWNTFVLNEHARTPTPGMAVLYERIARTAPSAPVLYLSTGAWNVAPTLSRFLSRNLYPAGPKLLTDWGPTPDRWFRSGQEHKRTSLERLAEEFPNIKWLLVGDDGQHDEAIYSEFAQRHPASVRAIAIRQLSAGEAVLAGGRSKSGGQPTPGVPWIYAPDGAGMSAQLEELGIIRLEHHHHHH”, the “soluble on expression in E. coli” value is given as “not soluble”.

For the sequence “MKPVPTYVQDKDESTLMFSVCSLVRDQAKYDRLLESFERFGFTPDKAEFLAADNREGNQFHGFSWHKQMLPRCKGRYVIFCHEDVELVDRGYDDLVAAIEALEEADPKWLVAGVAGSPWRPLNHSVTAQALHISDVFGNDRRRGNVPCRVESLDECFLLMRRLKPVLNSYDMQGFHYYGADLCLQAEFLGGRAYAIDFHLHHYGRAIADENFHRLRQEMAQKYRRWFPGRILHCVTGRVALGGGWYEAR”, the “soluble on expression in E. coli” value is given as “soluble”.

On to “MKQEVEKWRPFKHPDGDVRDLSFLDAHQVIYVQHHEDKEPLEYRFWVTYSLHCFTKDYEHQTNEEKLSLMYHAPKESRPFCQHRYNLARTHLKRTILALPESNVIHAGYGSYAVIEVDLDGGDKAFYFVVFRAFSEIFHHCLKLIEK”, for which the “soluble on expression in E. coli” value is recorded as “not soluble”.
